{"source": "paper PMC8575264", "binders": {"B1": {"name": "AAU24 (ssRNA)", "RNA": "AAUAAUAAUAAUAAUAAUAAUAAU"}, "B2": {"name": "ΔA1,2,4,5 (ssRNA)", "RNA": "CACUUUAAUCCUCCAAAUCAUGCU"}, "B3": {"name": "α-syn30 (ssRNA)", "RNA": "UCUCACUUUAAUAAUAAAAAUCAUGCUUAU"}, "B4": {"name": "PolyU24 (ssRNA)", "RNA": "UUUUUUUUUUUUUUUUUUUUUUUU"}, "B5": {"name": "α-syn24 (ssRNA)", "RNA": "CACUUUAAUAAUAAAAAUCAUGCU"}, "B6": {"name": "ARE11 (ssRNA)", "RNA": "UUUAUUUAUUU"}, "B7": {"name": "AAU9 (ssRNA)", "RNA": "AAUAAUAAU"}, "B8": {"name": "PolyC24 (ssRNA)", "RNA": "CACUUUAAUCCCCCCAAUCAUGCU"}, "B9": {"name": "AAU12 (ssRNA)", "RNA": "AAUAAUAAUAAU"}}, "test_in_all_cases": "fluorescence anisotropy", "key": {"Zn(II)-CPSF30-F2F3": {"biological_target": "Zn(II)-CPSF30-F2F3 (UniProt O19137)"}, "holo-CPSF30-FL [1]": {"biological_target": "T1, holo-CPSF30-FL (Bos taurus, UniProt O19137 1-243)"}, "holo-CPSF30-5F [2]": {"biological_target": "T2, holo-CPSF30-5F (UniProt O19137 35-169)"}, "holo-CPSF30-5F [3]": {"biological_target": "T2, holo-CPSF30-5F", "remark": "listed apart in the source"}, "holo-CPSF30-FL [4]": {"biological_target": "T1, holo-CPSF30-FL", "remark": "listed apart in the source"}, "Zn(II)-CPSF30-ZK": {"biological_target": "T3, Zn(II)-CPSF30-ZK (UniProt O19137)", "T3 chain": "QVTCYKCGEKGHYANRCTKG"}, "holo-CPSF30-FL [5]": {"biological_target": "T1, holo-CPSF30-FL", "remark": "listed apart in the source"}, "holo-CPSF30-FL [6]": {"biological_target": "T1, holo-CPSF30-FL", "remark": "listed apart in the source"}}, "note": "Where two headings read alike, the source gives them in different places.", "data": [{"binder": "B1", "values": [{"measurement": "binding result", "setting": "Zn(II)-CPSF30-F2F3", "value": "no binding"}]}, {"binder": "B2", "values": [{"measurement": "apparent K (half saturation)", "setting": "holo-CPSF30-FL [1]", "value": 275, "unit": "nM"}, {"measurement": "binding result", "setting": "holo-CPSF30-5F [2]", "value": "no binding"}]}, {"binder": "B3", "values": [{"measurement": "binding result", "setting": "Zn(II)-CPSF30-F2F3", "value": "no binding"}, {"measurement": "apparent K (half saturation)", "setting": "holo-CPSF30-5F [3]", "value": 178, "unit": "nM"}, {"measurement": "apparent K (half saturation)", "setting": "holo-CPSF30-FL [4]", "value": 110, "unit": "nM"}]}, {"binder": "B4", "values": [{"measurement": "binding result", "setting": "Zn(II)-CPSF30-ZK", "value": "no binding"}, {"measurement": "binding result", "setting": "holo-CPSF30-5F [2]", "value": "no binding"}]}, {"binder": "B5", "values": [{"measurement": "binding result", "setting": "Zn(II)-CPSF30-F2F3", "value": "no binding"}, {"measurement": "apparent K (half saturation)", "setting": "holo-CPSF30-FL [5]", "value": 110, "unit": "nM"}]}, {"binder": "B6", "values": [{"measurement": "binding result", "setting": "Zn(II)-CPSF30-F2F3", "value": "no binding"}, {"measurement": "binding result", "setting": "Zn(II)-CPSF30-ZK", "value": "no binding"}]}, {"binder": "B7", "values": [{"measurement": "binding result", "setting": "Zn(II)-CPSF30-F2F3", "value": "no binding"}]}, {"binder": "B8", "values": [{"measurement": "binding result", "setting": "holo-CPSF30-FL [6]", "value": "no binding"}]}, {"binder": "B9", "values": [{"measurement": "binding result", "setting": "Zn(II)-CPSF30-F2F3", "value": "no binding"}]}]}
